# From US20070148773
# Experiments:
# Experiment in all cases: cell_activity
# [1] = target: Int-h/218 (double mutant lambda integrase) (Bacteriophage lambda) (UniProt P03700); settings: HeLa 48 h
# [2] = target: Int-h (mutant lambda integrase) (Bacteriophage lambda) (UniProt P03700); settings: HeLa 48 h
# [3] = target: T1, Int (wild-type lambda integrase) (Bacteriophage lambda) (UniProt P03700); settings: attP x attP intermolecular, HeLa 48 h; attP x attB 0.81%
# T1 sequence: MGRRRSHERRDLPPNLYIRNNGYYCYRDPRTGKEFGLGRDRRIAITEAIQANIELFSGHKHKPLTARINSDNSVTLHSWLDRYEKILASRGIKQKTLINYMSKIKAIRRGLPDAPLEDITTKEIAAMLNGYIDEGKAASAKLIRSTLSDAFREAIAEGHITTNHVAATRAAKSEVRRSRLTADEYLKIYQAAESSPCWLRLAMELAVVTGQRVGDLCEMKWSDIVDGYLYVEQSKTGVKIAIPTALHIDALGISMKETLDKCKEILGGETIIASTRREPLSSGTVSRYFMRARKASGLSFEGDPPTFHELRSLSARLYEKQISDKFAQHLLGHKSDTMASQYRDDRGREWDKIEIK
Sequence,activity ([1]; attB x attB intermolecular) [% GFP+ cells],activity ([2]; attB x attB intermolecular) [% GFP+ cells],activity [3] [% GFP+ cells],"activity ([1]; attP x attP intermolecular, attP x attB 16.45%) [% GFP+ cells]","activity ([2]; attP x attP intermolecular, attP x attB 9.90%) [% GFP+ cells]"
CTGCTTTTTTATACTAACTTG (double strand) [attB],4.01,1.15,–,–,–
TCTGTTACAGGTCACTAATACCATCTAAGTAGTTGATTCATAGTGACTGCATATGTTGTGTTTTACAGTATTATGTAGTCTGTTTTTTATGCAAAATCTAATTTAATATATTGATATTTATATCATTTTACGTTTCTCGTTCAGCTTTTTTATACTAAGTTGGCATTATAAAAAAGCATTGCTTATCAATTTGTTGCAACGAACAGGTCACTATCAGTCAAAATAAAATCATTATTTGATTTC (double strand) [attP],–,–,1.24,17.6,8.07
